What was measured:
[1] = biological target: T1, Protein A on the surface of S. aureus Newman wild-type (Staphylococcus aureus (strain Newman), UniProt P38507 37-477); assay: cell-based or functional assay
[2] = biological target: T2, IgG binding protein (Protein A homolog SpsQ/SpsP) on S. intermedius 27369 (Staphylococcus intermedius); assay: cell-based or functional assay
[3] = biological target: T3, IgG binding protein (Protein A homolog SpsQ/SpsP) on S. pseudintermedius AHDRCC 98200 (Staphylococcus pseudintermedius); assay: cell-based or functional assay
[4] = biological target: T1, Protein A on the surface of S. aureus …; assay: ELISA on plate-coated S. aureus Newman WT
[5] = biological target: T1, Protein A on the surface of S. aureus …; assay: ELISA, coated S. aureus Newman, antibody 1.18E-12 M
[6] = biological target: T1, Protein A on the surface of S. aureus …; assay: ELISA, coated S. aureus Newman, antibody 3.09E-07 M
[7] = biological target: T1, Protein A on the surface of S. aureus …; assay: ELISA, coated S. aureus Newman, antibody 3.86E-08 M
[8] = biological target: T1, Protein A on the surface of S. aureus …; assay: ELISA, coated S. aureus Newman, antibody 4.82E-09 M
[9] = biological target: T1, Protein A on the surface of S. aureus …; assay: ELISA, coated S. aureus Newman, antibody 6.03E-10 M
[10] = biological target: T1, Protein A on the surface of S. aureus …; assay: ELISA, coated S. aureus Newman, antibody 9.42E-12 M
[11] = biological target: T2, IgG binding protein (Protein A homolog …); assay: ELISA, coated S. intermedius 27369, antibody 1.47E-13 M
[12] = biological target: T2, IgG binding protein (Protein A homolog …); assay: ELISA, coated S. intermedius 27369, antibody 4.82E-09 M
[13] = biological target: T2, IgG binding protein (Protein A homolog …); assay: ELISA, coated S. intermedius 27369, antibody 6.03E-10 M
[14] = biological target: T2, IgG binding protein (Protein A homolog …); assay: ELISA, coated S. intermedius 27369, antibody 7.54E-11 M
[15] = biological target: T4, IgG binding protein (Protein A homolog SpsQ/SpsP) on MRSP S. pseudintermedius 88493 (Staphylococcus pseudintermedius); assay: ELISA, coated S. pseudintermedius 88493, antibody 1.18E-12 M
T4 construct: whole, on cells; also called MRSP Staphylococcus pseudintermedius 88493 (methicillin-resistant)

[16] = biological target: T4, IgG binding protein (Protein A homolog …); assay: ELISA, coated S. pseudintermedius 88493, antibody 1.47E-13 M
[17] = biological target: T4, IgG binding protein (Protein A homolog …); assay: ELISA, coated S. pseudintermedius 88493, antibody 3.86E-08 M
[18] = biological target: T4, IgG binding protein (Protein A homolog …); assay: ELISA, coated S. pseudintermedius 88493, antibody 6.03E-10 M
[19] = biological target: T4, IgG binding protein (Protein A homolog …); assay: ELISA, coated S. pseudintermedius 88493, antibody 7.54E-11 M
[20] = biological target: T4, IgG binding protein (Protein A homolog …); assay: ELISA, coated S. pseudintermedius 88493, antibody 9.42E-12 M
[21] = biological target: T3, IgG binding protein (Protein A homolog …); assay: ELISA, coated S. pseudintermedius 98200, antibody 7.54E-11 M
[22] = biological target: T1, Protein A on the surface of S. aureus …; assay: flow cytometry; blocking antibody 10 ug/mL, then Alexa-488 Fc fragment (competitor) on wild-type S. aureus
[23] = biological target: T1, Protein A on the surface of S. aureus …; assay: flow cytometry; blocking antibody 1 ug/mL, then Alexa-488 VH3 hIgG1*/* antibody (competitor) on wild-type S. aureus

B1: H1xH15140P*/* (anti-Protein A) (antibody, V domains shown)
VH: EVQLVESGGGLVQPGGSLTLSCTASGFSFSSYVMSWVRQSPGKGLEWVSAIGGSGTSTYYRDSVKGRFTISRDNSKNTLNLQMSSLRAEDTAVYYCARDGLGHRDYWGQGTLVTVSS
VL: DIQMTQSPSSVSASVGDRVTITCRASQGINSWLAWYQQKPGKAPKLLIYAASSLQSGVPSRFSGSGSGTDFTLTISSLQPEDFATYYCQQANSFPFTFGPGTKVDIK
notes: also called anti-Protein A hIgG1*/*; H1xH15140P*/*-L1
- median cfu/mL after 16 h in 50% normal human serum, mAb 10 ug/mL [1]: 4.3e+06 cfu/mL
- median cfu/mL after 16 h in 50% normal human serum, mAb 30 ug/mL [1]: 1e+06 cfu/mL
- median cfu/mL after 16 h in 50% normal human serum, mAb 90 ug/mL [1]: 600000 cfu/mL
- median cfu/mL after 16 h in 50% normal human serum, mAb 270 ug/mL [1]: 180000 cfu/mL
- median cfu/mL after 16 h in 50% normal human serum, mAb 10 ug/mL [2]: 6e+06 cfu/mL
- median cfu/mL after 16 h in 50% normal human serum, mAb 30 ug/mL [2]: 8.3e+06 cfu/mL
- median cfu/mL after 16 h in 50% normal human serum, mAb 90 ug/mL [2]: 8.5e+06 cfu/mL
- median cfu/mL after 16 h in 50% normal human serum, mAb 270 ug/mL [2]: 3.8e+06 cfu/mL
- median cfu/mL after 16 h in 50% normal human serum, mAb 10 ug/mL [3]: 7.3e+06 cfu/mL
- median cfu/mL after 16 h in 50% normal human serum, mAb 30 ug/mL [3]: 6.8e+06 cfu/mL
- median cfu/mL after 16 h in 50% normal human serum, mAb 90 ug/mL [3]: 6.8e+06 cfu/mL
- median cfu/mL after 16 h in 50% normal human serum, mAb 270 ug/mL [3]: 4.5e+06 cfu/mL
- EC50 [4]: 0.0154 nM
- ELISA luminescent signal [5]: 28400
- ELISA luminescent signal [6]: 979000
- ELISA luminescent signal [7]: 838000
- ELISA luminescent signal [8]: 828000
- ELISA luminescent signal [9]: 647000
- ELISA luminescent signal [10]: 60500
- ELISA luminescent signal [11]: 1510
- ELISA luminescent signal [12]: 3030
- ELISA luminescent signal [13]: 3340
- ELISA luminescent signal [14]: 2660
- ELISA luminescent signal [15]: 5990
- ELISA luminescent signal [16]: 3470
- ELISA luminescent signal [17]: 6360
- ELISA luminescent signal [18]: 10000
- ELISA luminescent signal [19]: 5410
- ELISA luminescent signal [20]: 4270
- ELISA luminescent signal [21]: 4680
- Fc: S. aureus blocking activity (%) [22]: 97%
- VH3 antibody: S. aureus blocking activity (%) [23]: 84.5%

Reference: US20240301041A1 (Regeneron, published 2024)
